The supplement of paper PMC12042874
± gives the uncertainty stated by the source.

Experiment: amyloid nucleation score (Sup35N fusion, yeast selection) (log enrichment); library NNK1; higher = more nucleation; inactive = no reads after selection
Summary of the method: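 After 24 hours of induction with 100 μM copper sulfate, psi-negative yeast expressing peptides of 20 random codons fused to Sup35N were grown for 7 days at 30°C on medium lacking adenine and uracil. Input and output plasmid inserts were sequenced with Illumina, and sequences with under 100 input reads were discarded. Scores for nucleation are the DiMSum log enrichment of output over input reads, centred on the mode score of non-aggregating sequences.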

Substance: RKFSNLVGRYALFICLKSLT
- amyloid nucleation score: -0.28 ± 0.3

Substance: ESSLLLLDLGELRCYTFCLV
- amyloid nucleation score: -0.944 ± 0.94

Substance: ITCLRSCLLFNFSGCTTSDQ
- amyloid nucleation score: 4.11 ± 0.071

Substance: IGIPVLGMNINYCFLR
- amyloid nucleation score: 0.931 ± 0.29

Substance: IDSFCKCDISCVIFSWIVVV
- amyloid nucleation score: 0.024 ± 0.25

Substance: NFCEVYGANIN
- amyloid nucleation score: inactive

Substance: THAMCRYQSHGKLLSSGADS
- amyloid nucleation score: 0.781 ± 0.65

Substance: EVYRVTAYVLFYGICQLTLE
- amyloid nucleation score: -0.53 ± 0.32

Substance: MFFVFSYSRS
- amyloid nucleation score: 1.52 ± 0.28

Substance: SPHAIGRYLSFCRFCGTAAR
- amyloid nucleation score: -0.026 ± 0.35

Substance: KYDRCYYSRMNPSCVYIPYS
- amyloid nucleation score: 2.47 ± 0.4

Substance: LQLIGYRDNWSGVMFYLERG
- amyloid nucleation score: 0.838 ± 0.55

Substance: TKSRRSEGCEMPCHCNEVFV
- amyloid nucleation score: 0.497 ± 0.72

Substance: NVLVAVFLFYVGPIGVAHCY
- amyloid nucleation score: 1.12 ± 0.37

Substance: WRVSVKVVSAELEGMRNFAV
- amyloid nucleation score: 0.259 ± 0.49

Substance: LPCSRRTTPSDVCP
- amyloid nucleation score: -0.271 ± 0.36

Substance: YFVMITCFYVILL
- amyloid nucleation score: -0.126 ± 0.2

Substance: PDTYRLWRWSCIFEKCCDEG
- amyloid nucleation score: -0.194 ± 0.41

Substance: ANLDQCYIMEWGSTESSKL
- amyloid nucleation score: 0.302 ± 1

Substance: LCSFKFSVRPLCKKRFKVRV
- amyloid nucleation score: 0.099 ± 0.34

Substance: DFIKYAFSWE
- amyloid nucleation score: -0.347 ± 0.36

Substance: FVLRLS
- amyloid nucleation score: inactive

Substance: RVSGMAGFFTIKLLKRRSWA
- amyloid nucleation score: -0.503 ± 0.62

Substance: WRQYIDRNYVSCSASMLAWE
- amyloid nucleation score: 0.583 ± 0.43

Substance: YLILLWWTNCRARAKERVDR
- amyloid nucleation score: -0.155 ± 1.1

Substance: RWPVFNSCLSSSPRRAEYRY
- amyloid nucleation score: 0.616 ± 0.59

Substance: GGFIR
- amyloid nucleation score: -0.516 ± 1.1

Substance: LGLRGKKLRIINAPYTTGRN
- amyloid nucleation score: -0.64 ± 0.98

Substance: LRSMCSCHVRPIYPFCGHY
- amyloid nucleation score: 0.242 ± 0.81

Substance: DEGRSTQSVVCLVMEVNSDR
- amyloid nucleation score: 0.411 ± 0.48

Substance: VRSRLLQNLSDIPNQPIRWD
- amyloid nucleation score: -0.105 ± 0.33

Substance: KELPSSSTCLKFS
- amyloid nucleation score: -0.155 ± 0.44

Substance: MVRGQVNPNSFNARWY
- amyloid nucleation score: inactive

Substance: KEIINGCRR
- amyloid nucleation score: 5 ± 0.1

Substance: RANQHRGYIFSILVTFCYST
- amyloid nucleation score: -0.505 ± 0.51

Substance: LHTTKK
- amyloid nucleation score: 0.293 ± 0.48

Substance: KPLLTQQK
- amyloid nucleation score: -0.356 ± 0.54

Substance: FCVYKAVCIHYPSGFPLTIG
- amyloid nucleation score: -0.238 ± 0.31

Substance: IHSQHKHVIMRA
- amyloid nucleation score: -0.061 ± 0.57

Substance: LYIYTKFRFVMYVSWCVSDS
- amyloid nucleation score: 0.012 ± 0.62

Substance: TMLWIVIARNFECEMGFNM
- amyloid nucleation score: 3.1 ± 0.08

Substance: MSLMSRDVVMHIGMSWYSRG
- amyloid nucleation score: 4.21 ± 0.12

Substance: IALLNGNNLSPT
- amyloid nucleation score: 9.502 ± 0.052

Substance: SIHGGFYTLPE
- amyloid nucleation score: 1.15 ± 0.51

Substance: TSENLNSASNLSSYVADMPI
- amyloid nucleation score: 0.273 ± 0.35

Substance: RTMLMLMTSVLGGQGK
- amyloid nucleation score: 7.02 ± 0.079

Substance: VKHCQFR
- amyloid nucleation score: 1.69 ± 0.73

Substance: AQTPRLLKVG
- amyloid nucleation score: -1.01 ± 1.8

Substance: TIWLDCLMDKTYVFDCLFSF
- amyloid nucleation score: 0.587 ± 1.1

Substance: VHIPHDCISAIVFRSSAAIS
- amyloid nucleation score: -0.331 ± 0.49

Substance: FALIR
- amyloid nucleation score: 0.81 ± 0.51

Substance: GNAFFTYMINNYVSYFWHMP
- amyloid nucleation score: 6.42 ± 0.059

Substance: SLTVLCKVFFSCNQAGLLHG
- amyloid nucleation score: 0.17 ± 0.5

Substance: IRCVERGVWSCTFHIQGNCF
- amyloid nucleation score: -0.84 ± 0.91

Substance: YFIPEFSTCVMWRSNNTGKY
- amyloid nucleation score: -0.211 ± 1.2

Substance: RSLFPFSSLDMGHRRVGGKV
- amyloid nucleation score: 0.384 ± 0.52

Substance: MRSIH
- amyloid nucleation score: -0.11 ± 0.74

Substance: CTLKWLTF
- amyloid nucleation score: 1.34 ± 0.43

Substance: NLFTTSSCNLIFSTICFD
- amyloid nucleation score: 7.281 ± 0.067

Substance: HSASQLPYYQY
- amyloid nucleation score: 0.498 ± 0.97

Substance: LRLNDSSLRIPEAA
- amyloid nucleation score: -0.107 ± 0.44

Substance: YLIFKSFK
- amyloid nucleation score: 1.25 ± 0.61

Substance: LHLRTVAGSWSNIFYLAAPM
- amyloid nucleation score: 0.433 ± 0.31

Substance: SGVLVGYHRDLDVDMNLNPM
- amyloid nucleation score: -0.419 ± 0.4

Substance: WYAFERFDFHLCVDVVQLTR
- amyloid nucleation score: 1.11 ± 0.94

Substance: AKHVLGNHAIRNGSKL
- amyloid nucleation score: 0.258 ± 0.3

Substance: SWVGRAVVEYSARARASTES
- amyloid nucleation score: -0.327 ± 0.33

Substance: RTMCRFPYGCMTRSYVSG
- amyloid nucleation score: 0.159 ± 0.38

Substance: WHRSIWR
- amyloid nucleation score: 0.753 ± 0.56

Substance: NKQETSKWLWECGDCSRYLY
- amyloid nucleation score: 1.18 ± 0.41

Substance: SRFWGER
- amyloid nucleation score: 0.801 ± 0.62

Substance: ASNAARLLPDRISGSEAF
- amyloid nucleation score: 0.591 ± 0.71

Substance: YGGMDS
- amyloid nucleation score: 0.132 ± 0.5

Substance: KVGHANVADFPIWRRNLFG
- amyloid nucleation score: -0.544 ± 0.84

Substance: WWDAEFGGKSRAS
- amyloid nucleation score: -0.012 ± 0.57

Substance: GLWLKLLVDLKHMKIEHPWH
- amyloid nucleation score: 0.933 ± 0.72

Substance: TKIKYGDKSPKHYYMAS
- amyloid nucleation score: -0.174 ± 0.6

Substance: KRLRTKFYVVLYFSYMSSTL
- amyloid nucleation score: -1.52 ± 1.5

Substance: SCLPFLGYPFQDVGLIFLVA
- amyloid nucleation score: 0.749 ± 0.51

Substance: FNYYYLVEWGDGASIRIASI
- amyloid nucleation score: -0.473 ± 1.4

Substance: YGSAVVRQCFG
- amyloid nucleation score: -0.114 ± 0.35

Substance: VRMSFRLVEPY
- amyloid nucleation score: -0.301 ± 0.81

Substance: LFYDDEES
- amyloid nucleation score: inactive

Substance: QYMREEAGVALNGETHFFSL
- amyloid nucleation score: 0.567 ± 0.39

Substance: RYSLFIVSYCDGHRSSTRNM
- amyloid nucleation score: inactive

Substance: LQTGRYDWKVDPINSSMESV
- amyloid nucleation score: 0.26 ± 0.7

Substance: IAMSIKWRRW
- amyloid nucleation score: 2.8 ± 0.093

Substance: LATFVWPGHGRV
- amyloid nucleation score: 1.65 ± 0.14

Substance: VLVVTALLSRV
- amyloid nucleation score: 1.67 ± 0.22

Substance: RGSVFPCNVQVDWLRPETRA
- amyloid nucleation score: -0.047 ± 1.1

Substance: RLMSADFMQQEMMRGKVMAG
- amyloid nucleation score: -0.351 ± 0.41

Substance: SILSWLFSWTMLEEVI
- amyloid nucleation score: inactive

Substance: PSSACCGSHFLCEQEFMICY
- amyloid nucleation score: 0.146 ± 0.71

Substance: GVDSFTDSIEYKVGRRVFRH
- amyloid nucleation score: 1.21 ± 0.76

Substance: YSRSVGYRRYFI
- amyloid nucleation score: inactive

Substance: VYVKYP
- amyloid nucleation score: -0.125 ± 0.77

Substance: VFYFELKG
- amyloid nucleation score: -0.183 ± 0.28

Substance: GGYIDPLS
- amyloid nucleation score: inactive

Substance: CVLVNVNNDQSWWR
- amyloid nucleation score: 5.04 ± 0.076

Substance: LQLTYPPLVVPSSRWCLLLS
- amyloid nucleation score: -0.099 ± 0.97

Substance: VILFNSNTEYQKLEQLLELW
- amyloid nucleation score: 0.153 ± 0.23

Substance: ELSYSYQSGID
- amyloid nucleation score: 0.225 ± 0.67

Substance: YHVWTFWRRLETRINFQM
- amyloid nucleation score: 1.13 ± 0.98

Substance: NRARPLVSFMILGSVSECYA
- amyloid nucleation score: 0.767 ± 0.21

Substance: FACYLNHAGGVSAHKYIFVT
- amyloid nucleation score: 0.351 ± 0.37

Substance: ANAELVYNRLFRSTNPLGCV
- amyloid nucleation score: inactive

Substance: IGGLSGEYWFHLLSSSVLFF
- amyloid nucleation score: inactive

Substance: GNPGFELWLLSMLIGA
- amyloid nucleation score: inactive

Substance: YFVSCLFILWPRQSSTRPFE
- amyloid nucleation score: 8.165 ± 0.077

Substance: VDEETMCSFLSLGKVY
- amyloid nucleation score: 0.474 ± 0.69

Substance: RRHPS
- amyloid nucleation score: inactive

Substance: HYDLWCLMFFLVSMMSVNCH
- amyloid nucleation score: 0.972 ± 0.54

Substance: TMIWLVAPPPLLAMVLY
- amyloid nucleation score: 0.392 ± 0.6

Substance: FCWKLGANIDVDECWRWAAD
- amyloid nucleation score: 1.29 ± 0.63

Substance: PKCLNESMVGRRWLAIMGRV
- amyloid nucleation score: 0.328 ± 0.72

Substance: LQLYQVFSVHYEC
- amyloid nucleation score: 3.08 ± 0.11

Substance: GMMHYRFLIFFWYTSRTAYW
- amyloid nucleation score: -0.355 ± 0.84

Substance: VTSSFWFFNDADSRQ
- amyloid nucleation score: 3.24 ± 0.1

Substance: MDKEESRCVELSLMSVSVMG
- amyloid nucleation score: 1.35 ± 0.79

Substance: MIYVGVDISV
- amyloid nucleation score: 2.24 ± 0.28

Substance: FRSGTHWSMDFGHAKEIRR
- amyloid nucleation score: 1.39 ± 0.14

Substance: VVGRTEEEHLQHPSWCMCAL
- amyloid nucleation score: 0.128 ± 1

Substance: SDDRLATCTFCLYSRIKQVK
- amyloid nucleation score: -0.651 ± 1.7

Substance: KVHTGTSTRLKLYMHSTLRT
- amyloid nucleation score: 0.454 ± 0.25

Substance: YVGSDLFYRCQKNKYHRHSL
- amyloid nucleation score: -0.215 ± 0.97

Substance: GGSFYKAILFNRKCVYVGSR
- amyloid nucleation score: 0.942 ± 0.51

Substance: GHPVWRCFSDGSSPLFWDYG
- amyloid nucleation score: inactive
